Patent publication US7223850 (RIGEL PHARMACEUTICALS, dated 2007)

T1: HA-tagged RIP (UniProt Q13546 1-671, limits assumed)
T1 construct: also called HA-RIP; not shown: HA tag
T1 sequence (looked up): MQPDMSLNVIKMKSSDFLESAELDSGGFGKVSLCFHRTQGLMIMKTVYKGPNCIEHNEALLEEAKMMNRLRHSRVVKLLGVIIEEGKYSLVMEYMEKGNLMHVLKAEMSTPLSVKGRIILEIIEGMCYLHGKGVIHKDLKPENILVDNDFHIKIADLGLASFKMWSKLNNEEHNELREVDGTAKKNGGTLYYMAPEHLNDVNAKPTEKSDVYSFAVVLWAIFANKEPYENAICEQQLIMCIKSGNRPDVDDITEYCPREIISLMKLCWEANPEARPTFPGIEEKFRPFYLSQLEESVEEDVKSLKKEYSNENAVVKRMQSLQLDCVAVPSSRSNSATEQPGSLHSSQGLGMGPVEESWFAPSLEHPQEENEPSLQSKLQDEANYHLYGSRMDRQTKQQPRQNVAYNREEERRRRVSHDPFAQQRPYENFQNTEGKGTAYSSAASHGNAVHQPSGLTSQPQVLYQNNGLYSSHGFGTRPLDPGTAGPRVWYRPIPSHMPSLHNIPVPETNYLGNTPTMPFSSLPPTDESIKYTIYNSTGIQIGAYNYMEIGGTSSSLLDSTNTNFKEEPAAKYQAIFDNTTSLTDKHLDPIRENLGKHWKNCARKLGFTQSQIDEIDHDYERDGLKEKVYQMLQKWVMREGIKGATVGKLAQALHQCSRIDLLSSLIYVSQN

B1: Flag-tagged Apop3(287-518) (other)
chain: FQMVENNMNAAVSTVKDFLSQLKSSNRRFSIPESGQGGTEMDGFRRTIENQHSRNDVMVSEWLNKLNLEEPPSSVPKKCPSLTKRSRAQEEQVPQAWTAGTSSDSMAQPPQTPETSTFRNQMPSPTSTGTPSPGPRGNQGAERQGMNWSCRTPEPNPVTGRPLVNIYNCSGVQVGDNNYLTMQQTTALPTWGLAPSGKGRGLQHPPPVGSQEGPKDPEAWSRPQGWYNHSGK
notes: not shown: Flag tag
B2: Flag-tagged Apop3(1-251) (enzyme)
chain: MSCVKLWPSGAPAPLVSIEELENQELVGKDGFGTVFRAQHRKWGYDVAVKIVNSKAISREVKAMASLDNEFVLRLEGVIEKVNWDQDPKPALVTKFMENGSLSGLLQSQCPRPWPLLCRLLKEVVLGMFYLHDQNPVLLHRDLKPSNVLPDPELHVKLADFGLSTFQGGSQSGTGSGEPGGTLGYLAPELFVNVNRKASTASDVYSFGILMWAVLAGREVELPTEPSLVYEAVCNRQNRPSLAELPQAGPE
notes: not shown: Flag tag
B3: Flag-tagged Apop3(1-196) (enzyme)
chain: MSCVKLWPSGAPAPLVSIEELENQELVGKDGFGTVFRAQHRKWGYDVAVKIVNSKAISREVKAMASLDNEFVLRLEGVIEKVNWDQDPKPALVTKFMENGSLSGLLQSQCPRPWPLLCRLLKEVVLGMFYLHDQNPVLLHRDLKPSNVLPDPELHVKLADFGLSTFQGGSQSGTGSGEPGGTLGYLAPELFVNVNR
notes: not shown: Flag tag

Each binder was assayed against T1, HA-tagged RIP (assay: co-immunoprecipitation, HA-RIP and Flag-Apop3 mutant co-transfected in Phoenix-A (293 T) cells, anti-Flag immunoblot).

binding result | Binder
no binding | B1
no binding | B2
no binding | B3
